Measured values: patent US20220175942A1

T1: CCL5_HUMAN (human), P13501
T1 chain: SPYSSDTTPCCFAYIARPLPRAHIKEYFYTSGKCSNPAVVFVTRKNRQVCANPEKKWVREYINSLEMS

T2: CX3CL1_HUMAN (human), P78423
T2 chain: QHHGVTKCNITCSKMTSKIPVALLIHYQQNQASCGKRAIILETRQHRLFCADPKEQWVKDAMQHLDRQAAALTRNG

T3: CCL19_HUMAN (human), Q99731
T3 chain: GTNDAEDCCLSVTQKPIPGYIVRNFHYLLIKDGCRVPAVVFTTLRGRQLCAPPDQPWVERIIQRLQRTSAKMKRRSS


What was measured:
[1] = target: T1, CCL5_HUMAN (human), P13501; test: BLI; settings: other; chains chain; remark: other sources report otherwise
[2] = target: T2, CX3CL1_HUMAN (human), P78423; test: microscale thermophoresis, AlexaFluor 647 labelled chemokine; settings: remark: other sources report otherwise
[3] = target: CCL20_HUMAN (human), P78556; test: as above; settings: remark: other sources report otherwise
CCL20_HUMAN (human), P78556, sequence (P78556 27-96 limits assumed): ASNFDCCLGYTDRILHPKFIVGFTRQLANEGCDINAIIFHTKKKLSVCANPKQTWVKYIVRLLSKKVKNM

[4] = target: CXCL10_HUMAN (human), P02778; test: as above; settings: remark: other sources report otherwise
CXCL10_HUMAN (human), P02778, sequence (P02778 22-98 limits assumed): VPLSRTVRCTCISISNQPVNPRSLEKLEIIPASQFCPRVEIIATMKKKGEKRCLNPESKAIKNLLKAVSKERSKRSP

[5] = target: T1, CCL5_HUMAN (human), P13501; test: as above; settings: remark: other sources report otherwise
[6] = target: T3, CCL19_HUMAN (human), Q99731; test: as above; settings: remark: other sources report otherwise
[7] = target: CXCL8_HUMAN (human), P10145; test: as above; settings: remark: other sources report otherwise
CXCL8_HUMAN (human), P10145, sequence (P10145 28-99 limits assumed): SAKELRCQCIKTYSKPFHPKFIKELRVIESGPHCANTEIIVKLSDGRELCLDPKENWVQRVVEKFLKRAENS

[8] = target: CXCL12_HUMAN (human), P48061; test: as above; settings: remark: other sources report otherwise
CXCL12_HUMAN (human), P48061, sequence (P48061 22-89 limits assumed): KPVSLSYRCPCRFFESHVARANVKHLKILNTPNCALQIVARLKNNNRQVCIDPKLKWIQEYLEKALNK

Row | Binder | Kd [1] [µM] | Kd [2] [µM] | Kd [3] [µM] | Kd [4] [µM] | Kd [5] [µM] | Kd [6] [µM] | Kd [7] [µM] | Kd [8] [µM]
1 | P974_AMBCA, A0A023FDY8 22-118 (protein) ENTQQEEQDYDYGTDTCPFPVLANKTNKAKFVGCHQKCNGGDQKLTDGTACYVVERKVWDRMTPMLWYECPLGECKNGVCEDLRKKEDCRKGNGEEK | 0.16 |  |  |  |  |  |  | 
2 | P546_AMBCA, A0A023FBW7 22-118 (protein) ENTQQEEEDYDYGTDTCPFPVLANKTNKAKFVGCHQKCNGGDQKLTDGTACYVVERKVWDRMTPMLWYSCPLGECKNGVCEDLRKKEECRKGNGEEK |  | 0.14 | 0.232 | 0.104 | 0.128 | 0.367 | 0.056 | 0.071
